# Laboratory results as given in US20020123056A1 (priority 2000, published 2002).
# What was measured:
# SGK2 [1] = target: T1, SGK2 (Homo sapiens, UniProt Q9HBY8); assay type: biochemical
# T1 sequence (Q9HBY8 whole entry, looked up): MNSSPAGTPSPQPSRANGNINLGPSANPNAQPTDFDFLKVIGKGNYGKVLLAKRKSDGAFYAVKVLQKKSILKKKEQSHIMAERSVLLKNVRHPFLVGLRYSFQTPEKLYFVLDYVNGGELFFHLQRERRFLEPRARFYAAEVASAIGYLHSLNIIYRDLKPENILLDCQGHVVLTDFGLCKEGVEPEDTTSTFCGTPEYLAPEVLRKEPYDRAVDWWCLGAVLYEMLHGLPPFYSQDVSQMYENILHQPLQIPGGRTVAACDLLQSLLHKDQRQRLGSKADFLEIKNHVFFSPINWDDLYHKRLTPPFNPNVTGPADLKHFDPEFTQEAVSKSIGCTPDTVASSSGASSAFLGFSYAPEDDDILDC
# SGK2 [2] = assay type: biochemical, human
Compound,incorporation of 32P into peptide substrate (SGK2 [1]),effect on SGK2 kinase activity (SGK2 [2])
KTFCGTPEYLAPEVRREPRILSEEEQEMFRDFDYI [PDK1 peptide],no significant incorporation,
C=C1[C@@H](O)[C@@H]2O[C@]3(CC[C@H](/C=C/[C@@H](C)[C@@H]4CC(C)=C[C@@]5(O[C@H](C[C@@](C)(O)C(=O)O)CC[C@H]5O)O4)O3)CC[C@H]2O[C@@H]1[C@@H](O)C[C@H](C)[C@H]1O[C@@]2(CCCCO2)CC[C@H]1C [Okadaic Acid],,stimulated SGK2 kinase activity
COC[C@@H]([C@H](O)[C@H](O)C(=O)NCC[C@H](C)c1nc(/C=C/C[C@@H]2O[C@]3(C[C@@H](O)[C@@H]2C)O[C@H]([C@H](C[C@H](O)[C@H](C)[C@H](O)[C@H](C)/C=C(C)/C(C)=C/C=C/C(C)=C\C#N)OC)[C@H](OP(=O)(O)O)C3(C)C)co1)N(C)C [Calyculin A],,stimulated SGK2 kinase activity
CKRPRAASFAE [PKB-sub],significant incorporation,
